Experimental data taken from US20230041134A1 (Genentech, published 2023).

What was measured:
[1] = molecular target: T1, Her2 extracellular domain (Her2 ECD) (human, UniProt P04626 23-652); test: SPR (BIAcore T100), IgG, 1:1 Langmuir fit
T1 construct: For the crystal structure it was expressed in CHO cells and the complex was enzymatically deglycosylated; also called biotinylated Her2 ECD
Method: (§1) The affinity of each 7C2 IgG variant for Her2 was determined by surface plasmon resonance using a BIAcoreT100. Biacore Series S CMS sensor chips were immobilized with monoclonal mouse anti-human IgG (Fc) antibody (Human antibody capture kit, GE Healthcare). Serial 3-fold dilutions of each 7C2 variant were injected at a flow rate of 30 μl/min. Each sample was analyzed with 3-minute association and 10-minute dissociation. After each injection the chip was regenerated using 3 M MgCl₂. Binding response was corrected by subtracting the RU from a flow cell capturing an irrelevant IgG at similar density. A 1:1 Languir model of simultaneous fitting of kₒₙ and koff was used for kinetics analysis.

[2] = molecular target: T1, Her2 extracellular domain (Her2 ECD); test: SPR (BIAcore T100), IgG on anti-human IgG (Fc) capture chip, Her2 ECD, 1:1 Langmuir fit
Method: as §1

[3] = molecular target: T1, Her2 extracellular domain (Her2 ECD); test: SPR (BIAcore T100), IgG, 1:1 Langmuir fit; remark: listed apart in the source
Method: as §1

Row | Kd [2] | Kd [3] | Binder | further results
1 | 16 nM | – | 7C2.v2.1 (antibody, V domains shown, Expressed as IgG for SPR; also called hu7C2.v2.1) VH: EVQLVQSGAEVKKPGASVKVSCKASGYSFTGYWMNWVRQAPGQGLEWIGMIHPSDSEIRANQKFRDRVTITRDTSTSTAYLELSSLRSEDTAVYYCARGTYDGGFEYWGQGTLVTVSS VL: DIVMTQSPDSLAVSLGERATINCRASQSVSGSRFTYMHWYQQKPGQPPKLLIKYASILESGVPDRFSGSGSGTDFTLTISSLQAEDVAVYYCQHSWEIPPWTFGQGTKVEIK | Kd [1]: 15.5 nM; koff [1]: 0.0041 s⁻¹; kon [1]: 260000 M⁻¹ s⁻¹
2 | 11 nM | – | 7C2.v1.3 (antibody, V domains shown) VH: EVQLVQSGAEVKKPGASVKVSCKASGYSFTGYWMNWLRQAPGQGLEWIGMIHPSDSEIRANQKFRDRATLTVDKSTSTAYLELSSLRSEDTAVYYCARGTYDGGFEYWGQGTLVTVSS VL: DIVMTQSPDSLAVSLGERATINCRASQSVSGSRFTYMHWYQQKPGQPPKLLIYYASILESGVPDRFSGSGSGTDFTLTISSLQAEDVAVYYCQHSWEIPPWTFGQGTKVEIK | –
3 | 10 nM | – | 7C2.v2.3 (antibody, V domains shown) VH: EVQLVQSGAEVKKPGASVKVSCKASGYSFTGYWMNWLRQAPGQGLEWIGMIHPSDSEIRANQKFRDRATLTVDKSTSTAYLELSSLRSEDTAVYYCARGTYDGGFEYWGQGTLVTVSS VL: DIVMTQSPDSLAVSLGERATINCRASQSVSGSRFTYMHWYQQKPGQPPKLLIKYASILESGVPDRFSGSGSGTDFTLTISSLQAEDVAVYYCQHSWEIPPWTFGQGTKVEIK | –
4 | – | 3 nM | hu7C2.v2.2.LA (antibody, human IgG1, kappa, V domains shown, IgG1 kappa; Measured as IgG by SPR; also called humanized 7C2.v2.2.LA; hu7C2.v2.2.LA (S53L, S55A)) VH: EVQLVQSGAEVKKPGASVKVSCKASGYSFTGYWMNWVRQAPGQGLEWIGMIHPLDAEIRANQKFRDRVTITVDTSTSTAYLELSSLRSEDTAVYYCARGTYDGGFEYWGQGTLVTVSS VL: DIVMTQSPDSLAVSLGERATINCRASQSVSGSRFTYMHWYQQKPGQPPKLLIKYASILESGVPDRFSGSGSGTDFTLTISSLQAEDVAVYYCQHSWEIPPWTFGQGTKVEIKR | –
5 | 9 nM | – | 7C2.v3.3 (antibody, V domains shown) VH: EVQLVQSGAEVKKPGASVKVSCKASGYSFTGYWMNWLRQAPGQGLEWIGMIHPSDSEIRANQKFRDRATLTVDKSTSTAYLELSSLRSEDTAVYYCARGTYDGGFEYWGQGTLVTVSS VL: DIVLTQSPDSLAVSLGERATINCRASQSVSGSRFTYMHWYQQKPGQPPKLLIKYASILESGVPDRFSGSGSGTDFTLTISSLQAEDVAVYYCQHSWEIPPWTFGQGTKVEIK | –
6 | 13 nM | – | 7C2.v1.2 (antibody, V domains shown) VH: EVQLVQSGAEVKKPGASVKVSCKASGYSFTGYWMNWVRQAPGQGLEWIGMIHPSDSEIRANQKFRDRVTITVDTSTSTAYLELSSLRSEDTAVYYCARGTYDGGFEYWGQGTLVTVSS VL: DIVMTQSPDSLAVSLGERATINCRASQSVSGSRFTYMHWYQQKPGQPPKLLIYYASILESGVPDRFSGSGSGTDFTLTISSLQAEDVAVYYCQHSWEIPPWTFGQGTKVEIK | –
7 | 11 nM | 11 nM | hu7C2.v2.2 (antibody, V domains shown, Expressed as IgG; It is the parent of hu7C2.v2.2.LA, which adds S53L and S55A in HVR-H2) VH: EVQLVQSGAEVKKPGASVKVSCKASGYSFTGYWMNWVRQAPGQGLEWIGMIHPSDSEIRANQKFRDRVTITVDTSTSTAYLELSSLRSEDTAVYYCARGTYDGGFEYWGQGTLVTVSS VL: DIVMTQSPDSLAVSLGERATINCRASQSVSGSRFTYMHWYQQKPGQPPKLLIKYASILESGVPDRFSGSGSGTDFTLTISSLQAEDVAVYYCQHSWEIPPWTFGQGTKVEIK | –
8 | 15 nM | – | 7C2.v3.1 (antibody, V domains shown, Expressed as IgG) VH: EVQLVQSGAEVKKPGASVKVSCKASGYSFTGYWMNWVRQAPGQGLEWIGMIHPSDSEIRANQKFRDRVTITRDTSTSTAYLELSSLRSEDTAVYYCARGTYDGGFEYWGQGTLVTVSS VL: DIVLTQSPDSLAVSLGERATINCRASQSVSGSRFTYMHWYQQKPGQPPKLLIKYASILESGVPDRFSGSGSGTDFTLTISSLQAEDVAVYYCQHSWEIPPWTFGQGTKVEIK | –
9 | – | 8 nM | mu7C2.B9 (antibody, V domains shown, Assessed as IgG by SPR on an anti-human IgG (Fc) capture chip; also called murine 7C2.B9; chimeric mu7C2.B9) VH: QVQLQQPGAELVRPGASVKLSCKASGYSFTGYWMNWLKQRPGQGLEWIGMIHPSDSEIRANQKFRDKATLTVDKSSTTAYMQLSSPTSEDSAVYYCARGTYDGGFEYWGQGTTLTVSS VL: DIVLTQSPASLVVSLGQRATISCRASQSVSGSRFTYMHWYQQKPGQPPKLLIKYASILESGVPARFSGGGSGTDFTLNIHPVEEDDTATYYCQHSWEIPPWTFGGGTKLEIK | –
